According to the RNAGym collection of RNA variant scans (doi:10.7554/elife.90254):

B1: LINE1-mini (parent)
chain: GGCAGAGCUCAACACAGCGUGGCAAAGUGGCUGUGGCUAGACUGCC

Variants of: B1
Test: self-cleavage, relative activity (ratio to wild type); higher = more cleavage; in vitro, sequencing; the parent is a self-cleaving ribozyme

Variant	self-cleavage
GGCAGAGCUCAACACAGCGUGGCAAAGUGGGUGUGUCUAGACUGCC	0.05
GGCAGAGCUCAACACAGCGUGGCAAACUGGCUGUGGCUAGAGUGCC	0.09
GGCAGAGCUCAACACAGCGUGACAAAGUGGCUGUGGCUAGACAGCC	0.06
GGCAGAGCUCAACACAGCGUGGCAAAGUCGCUGUGGCUAGACUGCC	0.49
GGCAGAGCUCAACACAGCGUGGCAAAGUGGCCGUGACUAGACUGCC	0.08
GGCAGAGCUCAGCACAUCGUGGCAAAGUGGCUGUGGCUAGACUGCC	0.05
GGCAGAGCUUAACACAGCGUGGCACAGUGGCUGUGGCUAGACUGCC	0.21
GGCAGAGCUCAACACAGCGUGUCAAAGUGGCGGUGGCUAGACUGCC	0.15
GGCAGAGCUCAACACAUCGUGGCAAAGUGGCUGUGCCUAGACUGCC	0.09
GGCAGAGCUCAACACAGCGUGGCAAGGUGGCUGUGGUUAGACUGCC	0.04
GGCAGAACUCAACACAGCGUGGCAAAGUGGCUGUGGCUAGACUGUC	0.21
GGCAGAGCUCAACACAGCGUGGCAAAGUGGCUGUGGCCAGACUGCU	0.44
GGCAGAGCUCAUCACAGCGUGGCAAAGUGGCUGUGGCUAGACUUCC	0.11
GGCAGAGCUCAACAGAGCGUGGCAAAGUGGCUGUGGGUAGACUGCC	0.02
GGCAGGGCUCAACACAGCGUGGCAAAGUGGCUGUGGCUAGACUGCC	0.12
GGCAGAACUCAACACAGCGUGGCAAAGUGGCUGUGGCUAGACGGCC	0.57
GGCAGAUGUCAACACAGCGUGGCAAAGUGGCUGUGGCUAGACUGCC	0.32
GGCAGAGCUCAACACAGCGUGGCAAAGUCGCUGUGGCUACACUGCC	0.05
GGCAGAGCUCAACACAGCGUGGCAAUUUGGCUGUGGCUAGACUGCC	1.41

Variant	self-cleavage
GGCAGAGCUCAACACAGCGUGGCAAUAUGGCUGUGGCUAGACUGCC	0.8
GGCAGGGCUCAACACAGCGUGGCAAAGUGGCUGUGGCUUGACUGCC	0.08
GGCAGAGCUCAACACAGCGCGGCCAAGUGGCUGUGGCUAGACUGCC	0.31
GGCAGAGCUCAACAGAGCGUGGGAAAGUGGCUGUGGCUAGACUGCC	0.12
GGCAGAGCUCAACACAGCGUGCCAAAGUGGCUGUGGCUAGACUGUC	1.21
GGCAGAGCUCAACACAGCGUGGCAAGGUGGCUGUGGCUAGAUUGCC	0.13
GGCAGAGCUCAACACAGCUUGGCAAAGUGGGUGUGGCUAGACUGCC	0.05
GGCUGAGCUCAACACAGCGUGGCAAAGUGGCUGUGGCGAGACUGCC	0.03
GGCAGAGCUCAACACAGCGUGCCAAAGGGGCUGUGGCUAGACUGCC	0.43
GGCAGAGCUCAACACAUGGUGGCAAAGUGGCUGUGGCUAGACUGCC	0.12
GGCUGAGCUCAACACAGCGUGGCAAAGUGGCUGUGGCUAUACUGCC	0.14
GGCAGAGCUCAACACAGCGCGGCAAAGUGGUUGUGGCUAGACUGCC	0.39
GGGGGAGCUCAACACAGCGUGGCAAAGUGGCUGUGGCUAGACUGCC	0.2
GGCAGAGCUCAACACAGCGUGUCAAAGUGGCUGUGGCUAGACCGCC	0.18
GGCAGAGUUCAACACAGCGUGGCAAAGUGGCUCUGGCUAGACUGCC	0.07
GGCAGAGCUGAACACAGCGUGGCAAUGUGGCUGUGGCUAGACUGCC	0.15
GGCAGAGGUCAACACAGCGUGGCAAAGUGGCUGUGGCGAGACUGCC	0.32
GGCAGAGCUCAACACAGCGUGGCAAAGUGGCUAUGGCUAGUCUGCC	0.11
CGCAGAGCUCAACACAGCGUGGCAAAGUGUCUGUGGCUAGACUGCC	0.06

Variant	self-cleavage
GGCAGAGCUCAACACAGCGAGGCAAAGUGGCUGAGGCUAGACUGCC	0.08
GGCUGAGCUCAACACAGCGUGGCAGAGUGGCUGUGGCUAGACUGCC	0.08
GGCAGAGCUCAACACAGGGUGGCAAAGUUGCUGUGGCUAGACUGCC	0.96
GGCAGAUCUAAACACAGCGUGGCAAAGUGGCUGUGGCUAGACUGCC	0.04
GGCAGAGCUCAACACGGCGAGGCAAAGUGGCUGUGGCUAGACUGCC	0.16
GGCAGAGCUCAACACAGCGUGGCAAAGUGGCUGUGGAUCGACUGCC	0.12
GGCAAAGCUCAACACAGCCUGGCAAAGUGGCUGUGGCUAGACUGCC	0.06
GGCAGAGCUCAACACAGCGUGGCAACGUGGCUGAGGCUAGACUGCC	0.1
GGCAGAGUUCAACACAGCGUGGCAAAGUGGCUGAGGCUAGACUGCC	0.1
GGCAGAGCUCAACUCAGCGUGGCAAAGUGGCUGUGGCUAGGCUGCC	0.1
GGCAGAGCUCAACACAGCGUGGCCAAGUGGCUGUGUCUAGACUGCC	0.1
GGCAGAGCUCAACACAGCGUGGCAAAGUGGCUAUGGCAAGACUGCC	0.13
AGCAGAGCUCAACACAGCGUGGCCAAGUGGCUGUGGCUAGACUGCC	0.56
GACAGAGCUCAACACAGCGUGGCAAAGUGGCUGUGGAUAGACUGCC	0.35
GGCAGAGCGCAACACAGCGUGGCACAGUGGCUGUGGCUAGACUGCC	0.13
GUCAGAGCUCCACACAGCGUGGCAAAGUGGCUGUGGCUAGACUGCC	0.01
GGCAAAGCUCAACACAGCGUGGGAAAGUGGCUGUGGCUAGACUGCC	0.29
GGCAGAGCUCAACACCGCGUGGCAAAGUGGCUGUGGCUAGUCUGCC	0.05
